According to the supplement of paper PMC11865577:

test system: TO-N3 (biotin conjugate); assay: pull-down binding Z-score (relative to library population); higher = stronger binding; conditions: RNA library: Library-2
Summary of the method: (§1)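 Binding is given as a Z-score against the library mean and standard deviation, calculated after removing the beads-only signal and averaging barcoded replicate probes without their highest and lowest values. Cy5- or Cy3-end-labelled RNA library (1 μg) was heat-folded in phosphate/NaCl/KCl buffer and incubated 60 min at 25 °C with streptavidin beads bearing 100 pmol of biotin-conjugated small molecule. After three washes, RNA eluted in hot SDS was hybridised to a DNA barcode microarray for 20 h at 55.5 °C.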

Compared with AAGUCGAUUUCCAAAAGUGACUU [hsa-mir-3124], AAGUGCCGUCCUCAUGAGCCCCU [hsa-mir-6769b] is higher in “pull-down binding Z-score” value: -1.11 for the first, 0.59 for the second.

Compared with “AAGUGGAGCAGGAAUGCGCUUUUCUCCACUG [hsa-mir-5187]”, AAGUUCCCUCUGGCUGGAAC [hsa-mir-1249] is lower in “pull-down binding Z-score” value: 0.567 for the first, 0.559 for the second.

First: AAUAAAGUAUGUCCACAGCUGAAAGGACAUACUUUAUU [hsa-mir-4464]
Second: AAUCCCAGCACUUUGGGAG [hsa-mir-3929]
The “pull-down binding Z-score” value of the first is lower: -1.18 for the first, 0.0138 for the second.

First: AAUCCCUCUCUUUCUAGUUCUUCCUAGAGUGAGGAAAA [hsa-mir-320b-1]
Second: AAUGACUCAUAGUCAA [hsa-mir-4475]
The “pull-down binding Z-score” value of the first is lower: -0.325 for the first, 0.374 for the second.

First: AAUGCAGUCUGCACCCUGCUGCAUU [hsa-mir-6504]
Second: AAUGCAUAGAAAGCAUU [hsa-mir-4272]
The “pull-down binding Z-score” value of the first is higher: 0.0527 for the first, -0.421 for the second.

Compared with “AAUGCUGUGUUUCUGUAUGGUAUU [hsa-mir-92a-1]”, AAUGUCAGGGCCACCCCUGACCUU [hsa-mir-6837] is lower in “pull-down binding Z-score” value: 0.143 for the first, -0.481 for the second.

Going from “AAUUGGCUUUUACAAAAGACCAACU [hsa-mir-4798]” to “AAUUUUCUCUUGUCUAAAAGAAAAGAACG [hsa-mir-521-2]”, the “pull-down binding Z-score” value falls from 0.0359 to -0.996.

Going from “AAUUUUGAUGAGUAUCAUAGGAGAAAAAUU [hsa-mir-363]” to AAUUUUUUUUUAAUUUAAAAAAUU [hsa-mir-3938], the “pull-down binding Z-score” value falls from -0.184 to -1.13.

Going from “ACAAUAUGCUAUUAUAAUCGUAUGGCAUUGU [hsa-mir-2355]” to “ACAAUUAUGAAAGAAAAGAAAUUGU [hsa-mir-3611]”, the “pull-down binding Z-score” value rises from -1.18 to -0.636.

First: ACACACACCAGACUAUGGAAGCCAGUGU [hsa-mir-147a]
Second: ACACCUGUAAAGAAUUGGUCAGCCUGGGGACUGGUGAUCUCUGCAGCUGU [hsa-mir-4265]
The “pull-down binding Z-score” value of the first is lower: -0.528 for the first, 1.39 for the second.

Compared with “ACACUGCGCUGCCCCAGACCCACUGU [hsa-mir-210]”, “ACACUGGGCUGCCCCCACUGCCCAGUGC [hsa-mir-4277]” is lower in “pull-down binding Z-score” value: 0.83 for the first, 0.594 for the second.

Compared with “ACACUUCCUAUAUGUAUCCACAUAUAUAUAGU [hsa-mir-568]”, “ACAGAGUGAGAUGGUCUUGUUUUGU [hsa-mir-5684]” is higher in “pull-down binding Z-score” value: -0.69 for the first, -0.673 for the second.

Going from “ACAGCAGUCUUACUGAAGGUUUCCUGGAAACCACGCACAUGCUGU [hsa-mir-744]” to “ACAGCCAGUGCUCUCGUCUCCCCUCUGGCUGC [hsa-mir-192]”, the “pull-down binding Z-score” value rises from -0.165 to 0.925.

First: ACAGCGCCACGGAAGAGGACGCA [hsa-mir-941-4_941-5_941-2_941-3_941-1]
Second: ACAGGUAGUGGCCACAGUGAGAAAGCUGGCCUGUCCUUCUGC [hsa-mir-4314]
The “pull-down binding Z-score” value of the first is higher: 0.495 for the first, 0.245 for the second.

Compared with ACAGUGGACUUGGUGACGCUGU [hsa-mir-675], “ACAGUGGCCACAUCUCCAC [hsa-mir-1184-3_1184-2_1184-1]” is higher in “pull-down binding Z-score” value: -0.456 for the first, 1.17 for the second.

First: ACAGUUUGAGGGUCUAUGAUACCACCCGGUACAGGAGAUAACUGU [hsa-let-7g]
Second: ACAUGAAAAUAAAAUGUAAAUUAUUUUAUUUCUAUCA [hsa-mir-3671]
The “pull-down binding Z-score” value of the first is lower: -0.0397 for the first, 0.652 for the second.

Going from ACAUGCAGUAUUUGG [hsa-mir-1302-8] to “ACAUUUGCAACCUGUGAAGAUGCAAAACUUUAAGUGU [hsa-mir-2053]”, the “pull-down binding Z-score” value falls from -0.242 to -0.853.

Compared with ACCAAAAAUGAUAUGGGU [hsa-mir-7977], ACCAAAACACUCAUCGCGG [hsa-mir-1260a] is higher in “pull-down binding Z-score” value: -0.532 for the first, -0.188 for the second.

“ACCACCCAGGCCUUAUGGCUUCAUA [hsa-mir-7974]” was tested, and the “pull-down binding Z-score” value was 0.233.

test system: TO-N3-2 (biotin conjugate); assay: as above; conditions: RNA library: Library-2
Summary of the method: as §1

Compared with “AAAUAAAAGAUGGAGUCGUUUGACGUCUUUUAACACCCUUU [hsa-mir-8055]”, “AAAUAAGAGGCUAGGAUUGCCUCUUAUUU [hsa-mir-3201]” is lower in “pull-down binding Z-score” value: -0.866 for the first, -1.57 for the second.

First: AAAUAAGCUCCAUAUCAAUGAGAAUUUCAAUGGGAUUAUGUG [hsa-mir-4791]
Second: AAAUAGUUUCUAUCAAAAUAGUUU [hsa-mir-3668]
The “pull-down binding Z-score” value of the first is higher: 0.0926 for the first, -1.14 for the second.

Compared with “AAAUCCCGUUAAUAAGUAAGAGGAUUU [hsa-mir-2113]”, “AAAUCCGUGUUUGGACGCUUCUGGUA [hsa-mir-3936]” is lower in “pull-down binding Z-score” value: 0.758 for the first, 0.681 for the second.

Compared with “AAAUGAGAGUUAGCCAGGAGCUUUGCAUACUCA [hsa-mir-6801]”, “AAAUUGCAGACACUAGGACCAUGUCUUGGUUUUUGCAAUAAUG [hsa-mir-1248]” is lower in “pull-down binding Z-score” value: 0.66 for the first, -0.641 for the second.
